Here are results for 1 substance from paper PMC9563011.

This assay has as its target IL-2Rα Fc tag (UniProt P01589).
UniProt P01589, sequence (P01589 22-240): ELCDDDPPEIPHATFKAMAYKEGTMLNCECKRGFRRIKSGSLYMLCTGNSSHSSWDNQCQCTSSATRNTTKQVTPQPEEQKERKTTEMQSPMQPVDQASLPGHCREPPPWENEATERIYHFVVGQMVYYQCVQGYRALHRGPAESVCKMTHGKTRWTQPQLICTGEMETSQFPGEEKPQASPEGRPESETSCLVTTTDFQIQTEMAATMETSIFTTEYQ

In turn, “IL-2K35C (from UniProt P60568 22-153) (ligand)” gave an EC50 of CTLL-2 cell proliferation (CellTiter-Glo, 48 h, 50 to 0.002 ng/mL) of 0.014 µg/mL.
